Biological target: the molecule itself
Assay: non-reducing SDS-PAGE and Western blot

B1: kinesin-12 (rat) (natural protein, UniProt Q7TSP2 1-1385, looked up)
chain: MAPGCKSELRNVTNSHSNQPSNEDDAIKVFVRIRPAEEGARSADGEQSLCLSVLSQTALRLHSNPDPKTFVFDYVAGMDTTQESVFSTVAKSIVESCMSGYNGTIFAYGQTGSGKTFTMMGPSDSDNFSHNLRGVIPRSFEYLFSLIDREKEKAGAGKSFLCKCSFIEVYNEQIYDLLDSASVGLYLREHIKKGVFVVGAVEQVVASAAEAYQVLSRGWRNRRVASTSMNRESSRSHAVFTITIESMEKSSEAVNIRTSLLNLVDLAGSERQKDTHAEGMRLKEAGNINRSLSCLGQVITALVDVGNGKQRHVCYRDSKLTFLLRDSLGGNAKTAIIANVHPGSRCFGETLSTLNFAQRAKLIKNKAVVNEDTQGNVSQLQAEVKRLREQLSQFTSGQLTPGSSLARDKEKANYMEYFLEAMLFFKKSEQEKKSLVEKITQLEDLTLKKEKFIQSNKMIVKFREDQIMRLERLQKEARGSFLPEEQDRLLSELRDEIRTLREQVEHHPRLAKYAMENHSLREENRKLKLLAPVKRAHELDAQAIARLEQAFSEVSSTETNDKGLQGLPPKAIKEPSFFTSTEKLKVQLLQIQTELNNSKQEYEEFKELTRKKQLELESELQSLQKANLNLENLLEATKVCKRQEVSQLNKIHAETLKIITTPTKAYQLCSRLVPKSSPEVGSFGFLRSQSAPDNDILNEPVPPEMSEQALEAISEELRTVQEQLSVLQVKLDEEEHKNLKLQQNVDRLEHHSTQMQELFSSERSDWSKQQQDYLTQLSDLEKQLQDAQTKNDFLKCEVHDLRIVLNSADKELSLVKLEYSTFKESQEKELSQLSERHVQVQLQLDNARLENEKLLESQACLQDSYDNLQEVMKFEVDQLSKNLQNCKQENETLKSDLHNLVELFEAEKERNNKLSLQFEEDKENSSKEILKALETVRQEKQEEMARCEKQMAKVQELEESLLAAENVVSCLEKSRESDKELVTNLMNQIQELRTSAGEKSEAIDTLKQELQDISCKYTAAVADKEESKELIRRQEVDILELKETLRLRILSEDIERDMLCEDLAHATEQLNMLTEASKKHSGLLQSAQEELTKKEALIQELQHKLNQEKEEVEQKKSEYNLKMKQLEHVMGSAPEYPQSPKTPPHFQTHLAKLLETQEQEIEDGRASKMSLQHLVTKLNEDREVKNAEILRMKDQLCEMENLRLESQQLRERTWLLQTQLDDMKRQGESSSQSRPDSQQLKNEYEEEIIRERLAKNKLIEEMLKMKTDLEEVQSALDSKEKFCHRMSEEVERTRTLESRAFQEKEQLRSKLEEMYEERERTCQEMEMLRKQLEFLAEENGKLIGHQNLHQKIQYVVRLKKENIRLAEETEKLRAENVFLKERKKE
stoichiometry N: 2

Reference: PMC3064264 (The Journal of neuroscience : the official journal of the …, 2010)
